In publication PMC8038991, “R-catcher, a potent molecular tool to unveil the arginylome” (Cellular and Molecular Life Sciences: CMLS, 2021):

B1: R-CRT: Nt-arginylated CRT (protein)
chain: REPAVYFKEQFLDGDGWTSRWIESKHKSDFGKFVLSSGKFYGDEEKDKGLQTSQDARFYALSASFEPFSNKGQTLVVQFTVKHEQNIDCGGGYVKLFPNSLDQTDMHGDSEYNIMFGPDICGPGTKKVHVIFNYKGKNVLINKDIRCKDDEFTHLYTLIVRPDNTYEVKIDNSQVESGSLEDDWDFLPPKKIKDPDASKPEDWDERAKIDDPTDSKPEDWDKPEHIPDPDAKKPEDWDEEMDGEWEPPVIQNPEYKGEWKPRQIDNPDYKGTWIHPEIDNPEYSPDPSIYAYDNFGVLGLDLWQVKSGTIFDNFLITNDEAYAEEFGNETWGVTKAAEKQMKDKQDEEQRLKEEEEDKKRKEEEEAEDKEDDEDKDEDEEDEEDKEEDEEEDVPGQAKDEL
B2: CRT: ER chaperone calreticulin, arginylated (protein)
chain: B1 chain

What was measured:
GST-ZZ122-175^N132D = GST-ZZ122-175^N132D pulldown from HeLa lysates (MG132 plus TG); type: binding, human; details: HeLa lysate, immunoblot
Text: Using these lysates and purified GST tagged ZZ122-175^N132D (Supplementary Fig. 4A) immobilized on glutathione resin, we performed pulldown assays. […] In addition to pulling down R-BiP and R-CRT, GST-ZZ122-175^N132D was able to capture polyubiquitinated proteins, which were also disrupted by the D129A mutation and RA dipeptide competition (Supplementary Fig. 4B). This was expected because arginylated proteins are known to be ubiquitinated by E3 ligases containing a UBR box leading to their proteasomal degradation.
Fig. 4 ZZ122-175 ^N132D is capable of capturing known arginylated proteins in cells. a Western blot analysis to visualize arginylated BiP and CRT. […] N-terminally arginylated BiP and CRT were detected by immunoblotting using anti R-BiP and R-CRT antibodies. b GST pulldown assays to test the ability of wild type (WT) and N132D GST-ZZ in capturing cellular R-BiP and R-CRT. […] Pulled down R-BiP and R-CRT were detected using anti R-BiP and R-CRT antibodies. c Schematic drawing illustrating R-catcher. […] R-catcher bound arginylated proteins were detected by immunoblotting using anti-Myc or Flag antibody. e R-catcher pulldown assay to capture R-BiP and R-CRT induced in HeLa cells stimulated with MG132 plus TG in the absence or presence of 20 mM dipeptides TEXT PRINTED IN THE PICTURE: (C) R-catcher: ~ 9 kDa

R-catcher = assay: Small-scale R-catcher pulldown of known arginylated proteins; type: binding, human; details: HeLa, MG132 plus TG, Fig. 4e
Procedure: For small-scale R-catcher pull-down assays, 300 µg of purified R-catcher was conjugated with 120 µl of Strep-Tactin sepharose resin by incubating overnight at 4 °C. To test R-catcher’s ability to capture known arginylated proteins, such as R-BiP, R-PDI, R-nsP4 and R-RGS4, plasmids encoding Ub-X-(BiP, PDI and nsP4) or MX-RGS4 (X = Arg or Val) were transiently transfected into HEK293 cells. After 24 h, cells were treated with 10 µM MG132 and 100 nM thapsigargin for another 24 h. Cells were harvested and lysed in hypotonic buffer and 300 µg total protein was incubate with 25 µl R-catcher-sepharose resin in binding buffer (20 mM HEPES pH 7.9, 0.05% Tween 20, 10% glycerol, 0.2 M KCl, protease inhibitor and phosphatase inhibitor) for 3 h with gentle rotation at 4 °C. After three washes with binding buffer, bound proteins were dissociated with 2 × SDS sample buffer and boiling at 100 °C and subjected to immunoblotting using anti-myc or flag antibodies.

[1] = test system: HeLa cell extracts stimulated with MG132 plus TG; assay: Large-scale R-catcher pulldown coupled to silver staining and LC-MS/MS; parameters: species or system human; details: LC-MS/MS working list
Procedure: For large-scale R-catcher pulldown assays, HeLa cells were treated with 5 µM MG132 and 100 nM thapsigargin for 24 h. Cells were lysed in hypotonic buffer and 10 mg total was incubated with 750 µl R-catcher-sepharose beads for 3 h at 4 °C after pre-clearing with D129A mutant R-catcher-sepharose beads for 3 h at 4 °C. After three washes with binding buffer, bound proteins were eluted with binding buffer containing 20 mM D-biotin. To remove R-catcher, the eluent was dialyzed using 20 kDa cut-off dialysis membrane in binding buffer containing 3.5 M MgCl2 overnight followed by another overnight dialysis in distilled-deionized water. The dialyzed eluent was lyophilized overnight and dried powder was dissolved in 100 µl LC/MS solubilizer for silver staining and mass spectrometry analysis.
Protein samples solubilized in Invitrosol LC/MS solubilizer (Invitrogen) as following by manufacturer protocol. For removal of incompatible buffer components, protein samples filtrate with 10 K MW ultrafilter for complete digestion. […]
Peptides were analyzed using a LC–MS/MS system consisting of an Easy nLC 1000 (Thermo Fisher scientific) and an Orbitrap Fusion Lumos mass spectrometer (Thermo Fisher Scientific) equipped with a nano-electrospray source (EASY-Spray Sources, Thermo Fisher Scientific). […]
MS/MS spectra were analyzed using the following software analysis protocols with the Uniprot human DB (2019). […]

Row | Molecule | pulldown by GST-ZZ122-175^N132D (GST-ZZ122-175^N132D) | pulldown by R-catcher, endogenous (R-catcher) | presence in R-catcher working list [1]
1 | B1 | efficiently pull down |  | 
2 | B2 |  | could pulldown | among the known arginylated proteins
